Target: Amyloid β (1–40) peptide, unlabeled, monomeric (UniProt P05067 672-711)
Experiment: cell-based or functional assay

Amyloid β (1–40) peptide, unlabeled, monomeric, sequence (P05067 672-711): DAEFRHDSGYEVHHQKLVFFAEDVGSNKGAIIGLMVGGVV

IC50 of WT-L-PGDS for Aβ40 aggregation (ThT end-point fluorescence, 50 µM Aβ40, 37 °C): 980 nM
fold reduction of the primary nucleation rate constant of Aβ40 aggregation with L-PGDS (ThT curves fitted with Amylofit): 14 fold
fold reduction of the secondary nucleation rate constant of Aβ40 aggregation with L-PGDS (ThT curves fitted with Amylofit): 6 fold
B1: Human wild-type Lipocalin-type prostaglandin D synthase (L-PGDS) (natural protein, UniProt P41222 23-190, looked up)
chain: APEAQVSVQPNFQQDKFLGRWFSAGLASNSSWLREKKAALSMCKSVVAPATDGGLNLTSTFLRKNQCETRTMLLQPAGSLGSYSYRSPHWGSTYSVSVVETDYDQYALLYSQGSKGPGEDFRMATLYSRTQTPRAELKEKFTAFCKAQGFTEDTIVFLPQTDKCMTEQ
modifications: uniformly 15N labeled in the NMR titration with unlabeled Aβ40; unlabeled elsewhere

Source: publication PMC6715741, “Abundant neuroprotective chaperone Lipocalin-type prostaglandin D synthase (L-PGDS) disassembles the Amyloid-β fibrils” (Scientific Reports, 2019)
